{"source": "the DeepSol protein solubility set", "data": [{"experiment": "soluble on expression in E. coli; label from the status in PepcDB or PDB records", "values": [{"sequence": "SMGGFMEDLRKCKIIFIIGGPGSGKGTQCEKLVEKYGFTHLSTGELLREELASESERSKLIRDIMERGDLVPSGIVLELLKEAMVASLGDTRGFLIDGYPREVKQGEEFGRRIGDPQLVICMDCSADTMTNRLLQMSRSSLPVDDTTKTIAKRLEAYYRASIPVIAYYETKTQLHKINAEGTPEDVFLQLCTAIDSIFL", "soluble on expression in E. coli": "soluble"}, {"sequence": "MGSDKIHHHHHHMANVTPEIVKALFTGFGKNFKDGLAKAPSQYTAIATVIKSTTASNTYAWLGQMPKLTEWIGKRAITAIQSHGYAIVNKDWASGVEIKRTDIEDDNIGVYSPLVEELGRSAGEQPDELVFGALKGGFTTECYDKQYFFDTDHPVGANPDGTSPTSVSNITDDGTSVTADGAWYLLDCSRALKPLIFQQRKPATPAQMTDANAQKVFEDNVYTRCNVGYGFWQMAHAVKGKLNAENLWKAIKAMRAVHSDGGHKLGIKPTHIVVPTSLQEEAVKLLERELRVEDGAAVDNEFKNMKLTLIVADYL", "soluble on expression in E. coli": "not soluble"}, {"sequence": "MSLNLDYTTYRIICSHPFGISRSTHTYYDIVYIYISDGEYIGRGEAAPSVRYDESTNQIITHLKSIDNIDNNLNLEEGAFWCKKNSNGISSLEAALSTAWLDLWTKKNNRRISTYFNSGKNMLYTSFTIAIGDLDLIPKKIEEAKSYNILKIKLGINEQHDKNIIKLIRKETDKIIRVDANEGWDLDTGKKMCKWLADHNVEFVEQPFKAQNLGDTAKLRDVSPLPLIADENSIKSSNIPDIAHAFDGINIKLMKCGSLFEAKKMIDLARKYDMKIMLGCMVESSIGITAMSNLSPQVDFADLDGNLLIDNDPYIGVKVVDGKLKLPSGDGLGLTLNQKYRKDFGNLKEGHHHHHH", "soluble on expression in E. coli": "soluble"}, {"sequence": "MGSDKIHHHHHHMNLKRRRLLDLKSEIFEKIIKIEGNKIDIKPPKKIPQPILSPSREGFDSRNTYNPAVIKEKDRIVMLYRAESKEDKLTGRIGLAISYDGINFFRHPEPIIEPEYKWESVGVEDPRIVKVGKTYYMTYTGYDGKTARLCLATSKNMLTWKKHGPIFEGFEYKKNNIKGWTKSGAILPKKLEKGNFKGNYLMYFGDSNIWMAVSKDLVNWEYMKEPVLSPREGYFDNVLVEPGPPLFETSYGIALIYNSAGRYGDKLKYKVGVVIFDKEYPDKVVARTETPLMVPEYEWELYGHVNNVVFVEGMVEHENKILLYYGGADRHIGLAYWTTDL", "soluble on expression in E. coli": "not soluble"}, {"sequence": "MGSDKIHHHHHHMARGYIAKKLLVEGKDDLRVIPELIEKNGIVWGNNKKEAIVTIEDYGGYTNINSDLVSTELQASGLTHLGLMVDADDKPQTRWQSIREACLDSILDIPEEIPTTGLIHTTNTGIKFGVWIMPDNLMQGMLETFLAYMIPDESEPLWMYAQEVVAEAKIKGASFIDARIDKAKIHTWLAWQEEPGR", "soluble on expression in E. coli": "not soluble"}, {"sequence": "SNAMGKKIRTEEVDHLFEAILCLKNKEECYTFFEDVCTINELLSLSQRFEVAKMLTDKRTYLDISEKTGASTATISRVNRSLNYGNDGYEMVFSRMKEKETAGKTEE", "soluble on expression in E. coli": "soluble"}, {"sequence": "MADRANNDDDVDRQPLPIADDADDDVDGIDEMFNNEDEDPEDEEGENLFGDDMERDYREQPELDQYSESGMDDASDVGSLSVSARRAAEREMAQRDQLLDDDALMYEDGDSEEVDTRRRGRGRRGRGDAADDDSVPMEEEDIPVDILENIRGRTIRDHVSDEAVAKEIERRFKNFLRSFHEPGNKQTKYIQMIKSMAADNRESLEVSFTDLSDDNGEQNISYFLPEAPNEMLAIMDRAATEVVMNMYPFYSRVCNEIKVRISQLPVEEDIRMLRQVHLNMLIRTAGVVTIASGILPQLAVVKYDCVACGYLLGPFVQQNDEEVRPTICPSCQGKGPFELNVENTVYHNYQRITMQESPNKVAAGRLPRSKDVILLGDLCDSCKPGDEIEVTGVYTNNFDGSLNYKQGFPVFNTLIHANHITNKDKMASDQLTDEDIKAIRELSQDPNISQRVFSSIAPSIYGHDDVKRAIALALFRGEAKNPGAKHRLRGDINVLLCGDPGTAKSQFLRYAAHIAPRSVLTTGQGASAVGLTAYVQRHPVTREWTLEAGAMVLADKGVCLIDEFDKMSDQDRTSIHEAMEQQSISISKAGIVTSLHARCTVIAASNPIGGRYNPTRTFAENVDLTEPILSRFDVLCVIRDSVDSVEDERLAKFVVGNHRTHHPDAKKIVKEGDELEEDQMDERTGVRLIPQDLLRKYIIYAREKCHPTLPEQHSEKFSNIFAQMRKESMATGSVAITVRHVESMIRLSEAHAKLHLRSYVNDEDCAAAIRVMLESFVNTQKASIMRMMKKTFSRHLTENRSANELLLFILKQLIRQQMHYATARAAAGTILQSVTIPESEFIEKAQQLRIENVKPFYTSEIFASNNFLYDPSKKTIVQEIF", "soluble on expression in E. coli": "not soluble"}, {"sequence": "MQQIFFKDPILGEVLFDQQTKWMYELVETEAFRRLRNIKQLGINFHFYPGGVHTRYSHSLGVYELLRRILNTPAFAPIDENKKQTVLVAGLLHDIGHAPHSHAFEIYFAKAPNFKKELFIHEEVTTLFVNSEPIKSILKANQIDPKLVAALIDENKELKPSNYWMRQLISSDLDADRMDYLLRDSYFTGTSHSLIDYQTIIKEMDCVKVKGIYEIFFKDKCLPLIENFLITRHHMYQSIYSDGRSISTELNLWFVFQRIKDLVDKNQFDFNGYKTLEQVCLPLLKNEHFDKKMLPAFVKLDDYVFQSFFVNLYQTTKDKILKKLLDSYLNSLKFEIKFYETKEQRDLDFEKQASKYKDAKYFITKFNNQFKGFYEGWSSHKNELKIKTMQNKHTNLSEISMLVKRSNELFFENALYKWANVFYRL", "soluble on expression in E. coli": "soluble"}, {"sequence": "MGSDKIHHHHHHMNQSETDMIERIFTATDALMATVGLPNLSMHKIAREAKISPGTIYIYFKNKEELLTQFARYIFQNFQDVLKEGYDERQPFFQQYRKMWWNIWHFLEAEPTIMANMGQYESLPGFSDICQKWESDSIWYHFCVKAKAAGELADVPPPILFAISLESAFNIAFKCRHFCAQVSMEMLEAVIERTWLAIKN", "soluble on expression in E. coli": "not soluble"}, {"sequence": "GGGGGGMKRFYIANEDEIKAGKTTDVYFLRTKKILEVKNIRKKVLADVTTTSLPNNWRWGVLVGVEEVAKLLEGIPVNVYAMPEGTIFHPYEPVLQIEGDYADFGIYETALLGMLSQASGIATAALRIKIAAKFKPVYSFGIRHMHPAIAPMIDRAAFIGGCDGVSGVLGAEMMGEKAVGTMPHALIITVGDQVKAWKYFDEVIEEEVPRIALVDTFYDEKVEAVMAAEALGKKLFAVRLDTPSSRRGNFRKIIEEVRWELKVRGYDWVKIFVSGGLDEEKIKEIVDVVDAFGVGGAIASAKPVDFALDIVEVEGKPIAKRGKLSGRKQVYRCENGHYHVVPANKKLERCPVCNAKVEPLLKPIIENGEIVVEFPKAREIREYVLEQAKKFNLEI", "soluble on expression in E. coli": "soluble"}, {"sequence": "MEQVIAQVIKRQQTEERPPDVLSQQTTKYEKRNSASLRKRKNSSKLYLKTDQNWMALREKLASNSIHDKGKYRQKRESNVTCFKSGVESGIQNSSVRSRETQVTFCDGTVPSQGLELANSKSTAEISSRNEIPRLTKVVALDCEFVGVGKLGKEHSLARVSIVNFKGEVLYDKYVLNDKEPVVDYRTSVSGIRPEHLRSSDAVSFEQAQRDVYSIIRNRILVGHAIHHDMHALLLSHPRKLIRDTSKWRGLRSHHLSRKTPSLRKLAQEILGIRIQDGEHDSVEDARATLMIYKRFAKEWEMELQTKKVKLARKKHR", "soluble on expression in E. coli": "soluble"}, {"sequence": "MKIAKFTRINAHQVQNCNNEKIAHERKMEKVFEFLAEDKKTFEASNSFERTLIFCKHDKSAMAALLTLYDSKTIFGTFSEYLITNDKTVLERERVQVNNGEKMLAICNMDFMDDFQLGLAKHYIFLDFPLKIIGIKKMLDRLNTMAQQSEQVIDIDFLTTNMDARIYQEALNMEMTMRGSQVPKWLTELVNGSSELPEDPDVIFVRTCKPDLEPLTAKPAKLPSPRQPESKPSNEASSSQLEPTSASQPPSRVDQILKSRSGLPTKDADSSSEVAPRKRKPKSPAFDIYNMKRQPDGTFLIPSHVMGFCNEDLSEDDEEPDPEYDSEEEYNWMYKLDVW", "soluble on expression in E. coli": "not soluble"}, {"sequence": "MGSDKIHHHHHHLPAHLTPIQMEPEKALLRVHCQSDIDQLLSESVVFTLLSERNLGPKMLGVFPGGRFEQFIPSRALQCLEISKPGLSKLIAPIVARVHTLDAPIPKEPQTLQTARQWLERFKKTPAGERPIEMYLTQAKVPKSDYPSTITVAQLERELNFVEFFLQHSHSPVVFSHNDLQEGNFLLIDGYKLADDGTVLTPDGKPTNDDPLSLIDFEYCSYNYRGFDLGNHFCEYGYDYNEAEAPYYKIHQHYFEVEKERKVFCEAYLDEVYKMRACGDNPHFPSDLVTGDREKDLNKIIEESILFMPVSNIFWVCWSLINAEESSIAFDYGAYGRDRLALYFHQKKNLEKYLSNL", "soluble on expression in E. coli": "not soluble"}]}]}
